Test results published in patent KR20230039786A (dated 2023).

molecular target: SARS-CoV NP antigen (Sino Biological) (SARS-CoV, UniProt P59595 1-422); test: indirect ELISA, SARS-CoV NP coated, anti-mouse IgG-HRP
Sequence (P59595 whole entry): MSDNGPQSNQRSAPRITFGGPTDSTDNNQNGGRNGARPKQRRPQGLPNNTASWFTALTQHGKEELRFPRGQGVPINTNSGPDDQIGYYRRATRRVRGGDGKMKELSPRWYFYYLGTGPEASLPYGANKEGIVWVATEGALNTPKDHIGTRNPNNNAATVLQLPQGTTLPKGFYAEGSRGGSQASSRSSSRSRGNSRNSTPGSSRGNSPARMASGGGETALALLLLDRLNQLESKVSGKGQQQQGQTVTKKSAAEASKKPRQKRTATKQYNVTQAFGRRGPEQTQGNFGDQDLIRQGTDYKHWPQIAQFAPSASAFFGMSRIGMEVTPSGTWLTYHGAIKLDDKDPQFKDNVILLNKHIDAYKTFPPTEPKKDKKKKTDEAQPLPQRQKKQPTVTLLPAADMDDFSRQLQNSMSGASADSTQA

Binder	EC50
5B6 anti-NP monoclonal antibody (antibody, V domains shown) VH: QVQLQESGPELKKPGETVKISCTASGYTFANYGMNWVKQAPGKGLKWMGWINTYTGETTYADDFKGRFAFSLETSASTASLQINKLKNEDTATYFCTRSVLLRSYFDYGGQGTTLTVSS VL: DIVMTQSPKFMSTSVGDRVSITCEASQDVTTAVAWYQQKPGQSPKLLIYSASYRFAGVPDRFTGSGSGTDFTFTISSVQAEDLAVYYCQQHYSSPLTFGAGTKLELK	4 ng/mL
3F10 anti-NP monoclonal antibody (antibody, V domains shown) VH: EVQLEESGPELKKPGETVKISCKASGYTFTDYSMHWVKQAPGKGLKWMGWINTETGEPTYADDFKGRFAFSLETSASTASLQINNLKNEDTATYFCGSGSRYSWYFDVWGAGTTVTVSS VL: DIVLTQSPKFMSTSLGDRVSVTCKASQSVGTNVAWFQQNSGQSPKALIYSASYRYSGVPDRFTGSGSGTDFTLTISNVKSEDLAEYFCQQYNSYPLAFGGGTKVEIK	10 ng/mL
3E10 anti-NP monoclonal antibody (antibody, V domains shown) VH: EVQLEQSGPELVRPGVSVKISCKGSGYTFTDYAMHWVKQSHAKSLEWIGVISTYSGNTSYNQKFKGKATMTVDKSSSTAYMELARLTAEDSAIYYCANGGNYGFDYWGQGTTLTVSS VL: DIVLTQSPKFMSTSVGDRVSITCKASQDVGTAVAWYQQKPGQSPRLLIYWTSTRHTGVPDRFTGSGSGTDFTLTISNVQSEDLADYFCQQYSSYPLTFGGGTKLEIK	2 ng/mL
5B6.8 anti-NP monoclonal antibody (antibody, V domains shown) VH: QVQLQESGPELVRPGVSVKISCKGSGYTFTDYAMHWVKQSHAKSLEWIGVISTYSGNTSYNQKFKGKATMTVDKSSSTAYMELARLTAEDSAIYYCANGGNYGFDYWGQGTTLTVSS VL: DIVITQSPKFMSTSVGDRVSITCEASQDVTTAVAWYQQKPGQSPKLLIYSASYRFTGVPDRFTGSGSGTDFTFTISSVQAEDLAVYYCQQHYSSPLTFGAGTKLELK	1320 ng/mL
